Reference: publication PMC9809158 (Nature structural & molecular biology, 2022)
Values joined by “and” are separate entries in the source; they are usually repeats but may differ in a detail not shown here. Identical values can stand only once. Like-named read-outs stand apart in the source and are kept apart here.

Key:
[1] = molecular target: full-length NaVSp1 (from His-MBP-NaVSp1), reconstituted in lipid nanodiscs or amphipol A8-35 (Silicibacter pomeroyi); assay: SEC-MALS
[2] = molecular target: NaVAb1p (Alcanivorax borkumensis NaVAb1 'pore only' protein), crystallised from bicelles (Alcanivorax borkumensis); assay: crystal structure
[3] = molecular target: T1, full-length NaVSp1 (from His-MBP-NaVSp1), reconstituted in lipid nanodiscs or amphipol A8-35 (Silicibacter pomeroyi); assay: SEC-MALS
T1 chain: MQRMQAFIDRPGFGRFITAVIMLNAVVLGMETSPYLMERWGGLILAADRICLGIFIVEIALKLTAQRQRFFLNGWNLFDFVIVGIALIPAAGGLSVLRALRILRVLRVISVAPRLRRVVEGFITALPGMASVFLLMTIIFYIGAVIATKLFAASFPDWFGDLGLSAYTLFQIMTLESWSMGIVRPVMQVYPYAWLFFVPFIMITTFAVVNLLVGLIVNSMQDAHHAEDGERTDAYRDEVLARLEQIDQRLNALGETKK

[4] = molecular target: full-length NaVSp1 with C-terminal GFP (Silicibacter (Ruegeria) pomeroyi, entry …, UniProt F7IVA8); assay: fluorescence-detection size-exclusion chromatography
[5] = molecular target: full-length NaVAe1 with C-terminal GFP (Alkalilimnicola ehrlichii, entry strain …, UniProt Q0ABW0); assay: as above

“full-length NaVSp1 (from His-MBP-NaVSp1), reconstituted in lipid nanodiscs or amphipol A8-35 (natural protein)” was tested, and the stoichiometry N [1] was 4 and 8.

With “NaVAb1p (Alcanivorax borkumensis NaVAb1 'pore only' protein), crystallised from bicelles (domain or fragment)” the stoichiometry N [2] was 4.

B1: sFab SAT09 (synthetic Fab from phage display, selected on NaVAe1/Sp1CTD in nanodiscs) (Fab, V domains shown)
VH: EVQLVESGGGLVQPGGSLRLSCAASGFNFSSSSIHWVRQAPGKGLEWVASISSSSGSTSYADSVKGRFTISADTSKNTAYLQMNSLRAEDTAVYYCARTYGWYYSWWWAFDYWGQGTLVTVSS
VL: DIQMTQSPSSLSASVGDRVTITCRASQSVSSAVAWYQQKPGKAPKLLIYSASSLYSGVPSRFSGSRSGTDFTLTISSLQPEDFATYYCQQGDPRLVTFGQGTKVEIK
For B1, the “stoichiometry N” value [3] was 2 SAT09 sFabs to one channel, the binding result [4] was “binds” and the binding result [5] was “binds”.
